# Measured values from paper PMC12529230, “The Lrs14‐Like AbfR1 Homolog From Metallosphaera sedula Is a Nucleoid‐Organizing Protein” (MicrobiologyOpen, 2025).
# T1: AbfR1Ms (Metallosphaera sedula DSM5348, UniProt A4YIR2 1-115)
# T1 sequence: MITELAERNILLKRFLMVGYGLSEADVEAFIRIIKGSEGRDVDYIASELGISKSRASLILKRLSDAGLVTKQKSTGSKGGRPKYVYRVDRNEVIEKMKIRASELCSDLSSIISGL
# Assays:
# [1] = target: the molecule itself; assay: SEC; Enrich SEC 650 10 x 300 column, 20 mM HEPES, 150 mM NaCl, 1 mM DTT, 5% glycerol, pH 7.5; AbfR1 Ms concentrated to 1.9 mg/mL; MW from a standard curve
# [2] = target: T1, AbfR1Ms; assay: EMSA; apparent; salmon sperm competitor DNA; EMSA: 20 mM Tris-HCl pH 8.0, 50 mM NaCl, 0.4 mM EDTA, 0.1 mM DTT, 1 mM MgCl2, 12.5% glycerol, 25 ug/mL sonicated salmon sperm DNA, 25 min at 37 C; AFM: same buffer, 15 min at 37 C, then NiCl2/HEPES adsorption on mica; conditions: protein: recombinant; tags: C-terminal His; chain copies: 2; label: 5'-32P on one strand; blunt
Binder,stoichiometry N [1],Kd [2] [nM]
"AbfR1 Ms (recombinant, C-terminal His-tag) (natural protein, Metallosphaera sedula, UniProt A4YIR2 1-115, looked up, 115 amino acids, estimated MW 12.7 kDa; codon-optimized synthetic gene fragment (446 bp) cloned NdeI/XhoI into pET24a; No tag cleavage is described; A disulfide bridge between the two chains is proposed (C105, from an AlphaFold model and DTT sensitivity); also called Lrs14-like AbfR1 homolog from Metallosphaera sedula; HhcR; source: E. coli Rosetta (DE3), pET24a; purified (heat treatment 70°C, …)) MITELAERNILLKRFLMVGYGLSEADVEAFIRIIKGSEGRDVDYIASELGISKSRASLILKRLSDAGLVTKQKSTGSKGGRPKYVYRVDRNEVIEKMKIRASELCSDLSSIISGL",2,–
ORF abfR1Sa (dsDNA) DNA 1: GTCTTTCTGAATCAGAAATAGACACATTTCTAAGGATACTTGAAAGCAAAGAAGGTAAGGATATTGATGCAATATCTGCAGAACTAAAAATTAGTAAAAG DNA 2: CTTTTACTAATTTTTAGTTCTGCAGATATTGCATCAATATCCTTACCTTCTTTGCTTTCAAGTATCCTTAGAAATGTGTCTATTTCTGATTCAGAAAGAC,–,546
